{"source": "paper PMC9352680", "about": "“A comprehensive thermodynamic model for RNA binding by the Saccharomyces cerevisiae Pumilio protein PUF4”", "binders": {"B1": {"name": "Id_ii_S4_P4E.2_K4.1_C4.2_[C-2T]_[T-1C]_H4.1_A4.1_F4.1_T4.2_[G10T]_[T11C] (ssRNA)", "RNA": "UUUGACAACUGAUCGUUCUUUCUUCUGUAUAUUAUCUUCUUUCUCGAUCAGUUGUCUUU"}, "B2": {"name": "Id_ii_S4_P4E.2_K4.1_C4.2_[C-2A]_[T-1C]_H4.1_A4.1_F4.1_T4.2_[G10C] (ssRNA)", "RNA": "UUUGACAACUGAUCGUUCUUUCUACUGUAUAUUACUUUCUUUCUCGAUCAGUUGUCUUU"}, "B3": {"name": "Id_ii_S4_P4E.2_K4.1_C4.2_[C-2T]_[T-1A]_H4.1_A4.1_F4.1_T4.2_[T11C] (ssRNA)", "RNA": "UUUGACAACUGAUCGUUCUUUCUUAUGUAUAUUAGCUUCUUUCUCGAUCAGUUGUCUUU"}, "B4": {"name": "Id_ii_S4_P4E.2_K4.1_C4.2_[C-2T]_[T-1A]_H4.1_A4.1_F4.1_T4.2_[G10T]_[T11C] (ssRNA)", "RNA": "UUUGACAACUGAUCGUUCUUUCUUAUGUAUAUUAUCUUCUUUCUCGAUCAGUUGUCUUU"}, "B5": {"name": "Id_ii_S4_P4E.2_K4.1_C4.2_[C-2A]_[T-1G]_H4.1_A4.1_F4.1_T4.2_[G10T]_[T11C] (ssRNA)", "RNA": "UUUGACAACUGAUCGUUCUUUCUAGUGUAUAUUAUCUUCUUUCUCGAUCAGUUGUCUUU"}, "B6": {"name": "Id_ii_S4_P4E.2_K4.1_C4.2_[C-2A]_H4.1_A4.1_F4.1_T4.2_[G10T] (ssRNA)", "RNA": "UUUGACAACUGAUCGUUCUUUCUAUUGUAUAUUAUUUUCUUUCUCGAUCAGUUGUCUUU"}, "B7": {"name": "Id_ii_S4_P4E.2_K4.1_C4.2_[C-2T]_[T-1A]_H4.1_A4.1_F4.1_T4.2 (ssRNA)", "RNA": "UUUGACAACUGAUCGUUCUUUCUUAUGUAUAUUAGUUUCUUUCUCGAUCAGUUGUCUUU"}, "B8": {"name": "Id_ii_S4_P4E.2_K4.1_C4.2_[C-2T]_H4.1_A4.1_F4.1_T4.2 (ssRNA)", "RNA": "UUUGACAACUGAUCGUUCUUUCUUUUGUAUAUUAGUUUCUUUCUCGAUCAGUUGUCUUU"}, "B9": {"name": "Id_ii_S4_P4E.2_K4.1_C4.2_[C-2T]_H4.1_A4.1_F4.1_T4.2_[G10A]_[T11C] (ssRNA)", "RNA": "UUUGACAACUGAUCGUUCUUUCUUUUGUAUAUUAACUUCUUUCUCGAUCAGUUGUCUUU"}, "B10": {"name": "Id_ii_S4_P4E.2_K4.1_C4.2_[C-2A]_[T-1G]_H4.1_A4.1_F4.1_T4.2_[G10A]_[T11A] (ssRNA)", "RNA": "UUUGACAACUGAUCGUUCUUUCUAGUGUAUAUUAAAUUCUUUCUCGAUCAGUUGUCUUU"}, "B11": {"name": "Id_ii_S4_P4E.2_K4.1_C4.2_[C-2A]_[T-1C]_H4.1_A4.1_F4.1_T4.2_[G10T]_[T11C] (ssRNA)", "RNA": "UUUGACAACUGAUCGUUCUUUCUACUGUAUAUUAUCUUCUUUCUCGAUCAGUUGUCUUU"}, "B12": {"name": "Id_ii_S4_P4E.2_K4.1_C4.2_[C-2T]_H4.1_A4.1_F4.1_T4.2_[G10T]_[T11G] (ssRNA)", "RNA": "UUUGACAACUGAUCGUUCUUUCUUUUGUAUAUUAUGUUCUUUCUCGAUCAGUUGUCUUU"}, "B13": {"name": "Id_ii_S4_P4E.2_K4.1_C4.2_[C-2T]_[T-1A]_H4.1_A4.1_F4.1_T4.2_[G10A]_[T11C] (ssRNA)", "RNA": "UUUGACAACUGAUCGUUCUUUCUUAUGUAUAUUAACUUCUUUCUCGAUCAGUUGUCUUU"}, "B14": {"name": "Id_ii_S4_P4E.2_K4.1_C4.2_[C-2T]_H4.1_A4.1_F4.1_T4.2_[G10A]_[T11G] (ssRNA)", "RNA": "UUUGACAACUGAUCGUUCUUUCUUUUGUAUAUUAAGUUCUUUCUCGAUCAGUUGUCUUU"}, "B15": {"name": "Id_ii_S4_P4E.2_K4.1_C4.2_[C-2A]_[T-1C]_H4.1_A4.1_F4.1_T4.2_[G10T]_[T11A] (ssRNA)", "RNA": "UUUGACAACUGAUCGUUCUUUCUACUGUAUAUUAUAUUCUUUCUCGAUCAGUUGUCUUU"}, "B16": {"name": "Id_ii_S4_P4E.2_K4.1_C4.2_[C-2A]_[T-1A]_H4.1_A4.1_F4.1_T4.2_[G10T] (ssRNA)", "RNA": "UUUGACAACUGAUCGUUCUUUCUAAUGUAUAUUAUUUUCUUUCUCGAUCAGUUGUCUUU"}, "B17": {"name": "Id_ii_S4_P4E.2_K4.1_C4.2_[C-2T]_H4.1_A4.1_F4.1_T4.2_[T11C] (ssRNA)", "RNA": "UUUGACAACUGAUCGUUCUUUCUUUUGUAUAUUAGCUUCUUUCUCGAUCAGUUGUCUUU"}, "B18": {"name": "Id_ii_S4_P4E.2_K4.1_C4.2_[C-2A]_[T-1A]_H4.1_A4.1_F4.1_T4.2_[G10A] (ssRNA)", "RNA": "UUUGACAACUGAUCGUUCUUUCUAAUGUAUAUUAAUUUCUUUCUCGAUCAGUUGUCUUU"}}, "data": [{"molecular_target": "T1, PUF4 RNA-binding domain (Saccharomyces cerevisiae, UniProt P25339 537-888)", "T1 sequence": "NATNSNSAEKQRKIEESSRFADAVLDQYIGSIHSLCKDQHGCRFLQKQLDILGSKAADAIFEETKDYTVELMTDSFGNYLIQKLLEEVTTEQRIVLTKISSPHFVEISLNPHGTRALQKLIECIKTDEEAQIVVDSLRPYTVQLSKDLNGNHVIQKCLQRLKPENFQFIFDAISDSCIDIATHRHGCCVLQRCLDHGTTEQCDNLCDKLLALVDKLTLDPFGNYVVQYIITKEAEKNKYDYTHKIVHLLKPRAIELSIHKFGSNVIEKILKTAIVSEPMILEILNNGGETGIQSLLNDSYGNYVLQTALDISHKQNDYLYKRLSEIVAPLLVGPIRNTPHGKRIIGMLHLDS", "test": "Mg; RNA-MaP; 20 mM Na-HEPES pH 7.4, 30 mM KOAc, 0.75 mM MgCl2, 0.1% Tween-20, 5% glycerol, 0.1 mg/mL BSA, 2 mM DTT; 25 C; 0.0125-409.6 nM protein", "details": "tags: N-His6-TEV cleaved; C-SNAP kept, Cy3B-labelled; label: tethered on chip by stalled RNA polymerase", "units": {"Kd": "nM"}, "values": [{"binder": "B1", "Kd": 0.319}, {"binder": "B2", "Kd": 1.24}, {"binder": "B3", "Kd": 0.368}, {"binder": "B4", "Kd": 0.343}, {"binder": "B5", "Kd": 2.16}, {"binder": "B6", "Kd": 0.312}, {"binder": "B7", "Kd": 0.659}, {"binder": "B8", "Kd": 0.37}, {"binder": "B9", "Kd": 0.493}, {"binder": "B10", "Kd": 1.62}, {"binder": "B11", "Kd": 0.306}, {"binder": "B12", "Kd": 0.308}, {"binder": "B13", "Kd": 1.15}, {"binder": "B14", "Kd": 3.49}, {"binder": "B15", "Kd": 0.625}, {"binder": "B16", "Kd": 1.56}, {"binder": "B17", "Kd": 0.339}, {"binder": "B18", "Kd": 1.37}, {"binder": "UCUCUUUUUAUAAUUAUCUCUU (ssRNA)", "note": "[Ib_S1_P5E.1_K5.1_C5.1_H5.1_[G2T]_A5.1_[T6A]_F5.1_T5.1]", "Kd": "> 2300"}, {"binder": "UCUCUUUCUAUCAUUAUCUCUU (ssRNA)", "note": "[Ib_S1_P5E.1_K5.1_C5.1_H5.1_[G2C]_A5.1_[T6C]_F5.1_T5.1]", "Kd": "> 2300"}]}]}
